# Bridge positions count the residues as written; N and C are the ends. Ends that are not written are not given here. * marks the point of attachment. Biotin = O=C1N[C@H]2[C@H](CS[C@H]2CCCCC(=O)*)N1
# B1: HER3P1 (biotin-conjugated, N-terminal tri-glycine linker) (peptide)
# peptide: Biotin-GGGCLPTKFRSC
# modifications: disulfide 4-12 (inferred); not fully specified
# notes: The formulas of the description print a beta A before G-G-G; also called HER3 peptide; the peptide
# Key:
# [1] = molecular target: HER3 on cells (MDA-MB-453, moderate HER3; HCC-1954, low HER3) (human) (UniProt P21860); assay: cell binding on MDA-MB-453 cells (moderate HER3), 250 nM peptide, streptavidin-HRP and ABTS
# [2] = molecular target: HER3 extracellular domain (ECD) (R&D Systems) (human) (UniProt P21860); assay: ELISA of purified phage on adsorbed HER3 ECD, anti-M13-HRP and ABTS
# [3] = molecular target: T1, HER3 extracellular domain (ECD) (R&D Systems) (human, UniProt P21860 20-643); assay: phage binding to HER3, normalized to parent phage
# T1 construct: extracellular domain; Adsorbed to Maxisorp plates in the ELISAs; also called HER3 ECD; ERBB3
# [4] = molecular target: bovine serum albumin (bovine) (UniProt P02769); assay: peptide ELISA on immobilized protein, 250 nM peptide, streptavidin-HRP and ABTS
# [5] = molecular target: T1, HER3 extracellular domain (ECD) (R&D …); assay: peptide ELISA on immobilized ECD, 250 nM peptide, streptavidin-HRP and ABTS
# [6] = molecular target: T2, EGFR extracellular domain (UniProt P00533 25-645, limits assumed); assay: as above
# T2 construct: extracellular domain; Immobilized on plate for peptide ELISA
# [7] = molecular target: T3, HER2 extracellular domain (UniProt P04626 23-652, limits assumed); assay: as above
# T3 construct: extracellular domain; Immobilized on plate for peptide ELISA; also called ErbB2; neu
# T1 sequence (P21860 20-643): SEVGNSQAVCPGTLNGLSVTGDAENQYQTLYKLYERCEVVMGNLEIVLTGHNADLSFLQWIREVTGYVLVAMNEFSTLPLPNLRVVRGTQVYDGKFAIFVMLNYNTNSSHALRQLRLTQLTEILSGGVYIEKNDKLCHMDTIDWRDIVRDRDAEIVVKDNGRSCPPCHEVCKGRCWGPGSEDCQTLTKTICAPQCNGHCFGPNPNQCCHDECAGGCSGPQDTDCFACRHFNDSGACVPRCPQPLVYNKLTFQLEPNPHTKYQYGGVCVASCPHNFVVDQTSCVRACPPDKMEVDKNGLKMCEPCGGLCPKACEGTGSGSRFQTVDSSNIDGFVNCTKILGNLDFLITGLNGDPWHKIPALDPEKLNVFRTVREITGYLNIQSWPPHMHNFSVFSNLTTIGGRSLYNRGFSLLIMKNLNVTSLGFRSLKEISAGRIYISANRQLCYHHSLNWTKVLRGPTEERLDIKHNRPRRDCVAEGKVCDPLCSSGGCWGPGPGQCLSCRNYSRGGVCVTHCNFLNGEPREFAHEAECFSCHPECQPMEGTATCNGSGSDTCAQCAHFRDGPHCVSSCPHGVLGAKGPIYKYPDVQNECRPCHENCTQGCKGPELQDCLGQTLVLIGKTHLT
# Sequence of bovine serum albumin (bovine) (P02769 25-607 limits assumed): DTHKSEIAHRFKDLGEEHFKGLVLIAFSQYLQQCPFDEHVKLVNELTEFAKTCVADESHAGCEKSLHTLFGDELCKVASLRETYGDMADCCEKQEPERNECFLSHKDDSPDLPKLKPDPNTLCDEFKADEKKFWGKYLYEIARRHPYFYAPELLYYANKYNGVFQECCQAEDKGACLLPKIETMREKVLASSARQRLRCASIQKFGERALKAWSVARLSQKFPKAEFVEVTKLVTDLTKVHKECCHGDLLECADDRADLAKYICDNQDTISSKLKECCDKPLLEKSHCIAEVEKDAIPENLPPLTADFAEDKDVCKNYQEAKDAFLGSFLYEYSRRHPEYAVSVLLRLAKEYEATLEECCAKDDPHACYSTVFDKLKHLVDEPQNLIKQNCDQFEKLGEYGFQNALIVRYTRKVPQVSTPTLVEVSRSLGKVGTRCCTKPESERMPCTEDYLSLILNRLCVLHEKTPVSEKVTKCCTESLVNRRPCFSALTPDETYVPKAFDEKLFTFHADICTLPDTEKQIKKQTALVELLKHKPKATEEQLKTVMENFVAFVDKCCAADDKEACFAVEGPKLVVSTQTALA
# Sequence of HER3 extracellular domain (ECD) (R&D Systems) (human) (P21860 20-643): as the sequence (P21860 20-643) above
# Sequence of HER3 on cells (MDA-MB-453, moderate HER3; HCC-1954, low HER3) (human) (P21860 20-1342): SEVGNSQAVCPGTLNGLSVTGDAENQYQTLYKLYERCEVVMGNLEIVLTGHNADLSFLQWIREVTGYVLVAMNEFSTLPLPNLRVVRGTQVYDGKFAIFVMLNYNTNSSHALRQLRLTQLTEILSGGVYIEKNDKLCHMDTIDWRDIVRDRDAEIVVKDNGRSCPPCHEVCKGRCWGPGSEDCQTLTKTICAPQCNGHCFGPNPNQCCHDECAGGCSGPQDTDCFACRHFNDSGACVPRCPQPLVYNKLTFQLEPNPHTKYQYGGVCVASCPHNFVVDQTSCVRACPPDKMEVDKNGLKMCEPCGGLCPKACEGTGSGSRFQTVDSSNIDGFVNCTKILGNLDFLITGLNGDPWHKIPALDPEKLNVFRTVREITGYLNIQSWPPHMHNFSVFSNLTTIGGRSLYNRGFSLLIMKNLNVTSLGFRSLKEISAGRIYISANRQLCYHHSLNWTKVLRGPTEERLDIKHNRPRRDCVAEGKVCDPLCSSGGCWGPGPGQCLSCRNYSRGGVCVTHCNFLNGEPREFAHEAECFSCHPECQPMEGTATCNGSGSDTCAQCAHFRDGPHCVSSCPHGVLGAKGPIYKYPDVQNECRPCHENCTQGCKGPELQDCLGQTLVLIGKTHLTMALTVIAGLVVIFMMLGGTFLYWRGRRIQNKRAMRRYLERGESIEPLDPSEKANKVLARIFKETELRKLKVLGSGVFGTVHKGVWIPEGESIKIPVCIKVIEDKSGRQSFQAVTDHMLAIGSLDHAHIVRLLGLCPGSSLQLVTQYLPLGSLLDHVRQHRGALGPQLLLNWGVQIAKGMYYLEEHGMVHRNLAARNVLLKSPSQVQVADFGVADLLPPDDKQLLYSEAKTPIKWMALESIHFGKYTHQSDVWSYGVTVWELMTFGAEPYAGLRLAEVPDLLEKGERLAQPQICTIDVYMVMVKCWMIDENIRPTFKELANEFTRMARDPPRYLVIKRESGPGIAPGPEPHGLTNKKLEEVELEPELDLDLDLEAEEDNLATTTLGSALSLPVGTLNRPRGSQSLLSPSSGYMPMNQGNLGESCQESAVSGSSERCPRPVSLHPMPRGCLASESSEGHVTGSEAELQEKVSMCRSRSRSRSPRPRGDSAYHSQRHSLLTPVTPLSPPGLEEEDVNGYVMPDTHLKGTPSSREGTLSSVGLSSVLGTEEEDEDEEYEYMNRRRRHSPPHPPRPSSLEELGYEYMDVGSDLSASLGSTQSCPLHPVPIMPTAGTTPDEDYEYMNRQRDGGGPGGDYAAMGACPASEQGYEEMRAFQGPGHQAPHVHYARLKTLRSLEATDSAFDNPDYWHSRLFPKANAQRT
molecule,measurement,setting,value
control peptide,absorbance (405 nm),[1],0.12 absorbance
control phage bearing no peptide,"absorbance (background subtracted, 405 nm)",[2],0.007 absorbance
"CAPTKFRSC (peptide, not shown: large carriers) [phage M1 (alanine mutant at position 2 of the HER3P1 binding sequence)]",decrease of binding against parent (HER3P1) phage,[3],≥ 50%
"CLPTKFASC (peptide, not shown: large carriers) [phage M6 (alanine mutant at position 7 of the HER3P1 binding sequence)]",decrease of binding against parent (HER3P1) phage,[3],≥ 50%
"CLATKFRSC (peptide, not shown: large carriers) [phage M2 (alanine mutant at position 3 of the HER3P1 binding sequence)]",decrease of binding against parent (HER3P1) phage,[3],≥ 50%
"CLPAKFRSC (peptide, not shown: large carriers) [phage M3 (alanine mutant at position 4 of the HER3P1 binding sequence)]",decrease of binding against parent (HER3P1) phage,[3],≥ 50%
"CLPTKFRAC (peptide, not shown: large carriers) [phage M7 (alanine mutant at position 8 of the HER3P1 binding sequence)]",decrease of binding against parent (HER3P1) phage,[3],≥ 50%
B1,absorbance (405 nm),[4],0.15 absorbance
same,absorbance (405 nm),[5],0.82 absorbance
same,absorbance (405 nm),[6],0.21 absorbance
same,absorbance (405 nm),[7],0.22 absorbance

# From patent US20200121814A1 (GENERAL HOSPITAL, published 2020)
